The values that follow are results of earlier work, collected in article PMC6524963.

The Kd is a measure of binding affinity in units of concentration.

For data set [1], the target named is Ran (Homo sapiens) (UniProt P62826).
Data set [2] shares this target. The source holds these as a separate data set.

Read-outs that look alike come from different tables or passages of the source.

Take “RanBP1/RanBP2 RBD RBD (from UniProt P43487)”: the Kd in data set [1] was 1 nM; in data set [2], 10 µM.
